Experimental data as given in PMC2840211.

B1: ectodomain of RAE-1β PLWY-deletion mutant (domain or fragment)
chain: GLDDAHSLRCNLTIKDPTPADEAKCFVGEILILHLSNINKTMTSGDPGETANATEVKKCLTQPLKNLCQKLRNKVSNTKVDTHKTNGYPHLQVTMIYPQSQGRTPSATWEFNISDSYFFTFYTENMSWRSANDESGVIMNKWKDDGEFVKQLKFLIHECSQKMDEFLKQSKEKP
B2: ectodomain of RAE-1γ (domain or fragment)
chain: GLDDAHSLRCNLTIKAPTPADPLWYEAKCLVDEILILHLSNINKTMTSGDPGETANATEVGECLTQPVNDLCQKLRDKVSNTKVDTHKTNGYPHLQVTMIYPQSQGQTPSATWEFNISDSYFFTFYTENMSWRSANDESGVIMNKWNDDGDLVQRLKYFIPECRQKIDEFLKQSKEKP
B3: ectodomain of RAE-1γ PLWY-deletion mutant (domain or fragment)
chain: GLDDAHSLRCNLTIKAPTPADEAKCLVDEILILHLSNINKTMTSGDPGETANATEVGECLTQPVNDLCQKLRDKVSNTKVDTHKTNGYPHLQVTMIYPQSQGQTPSATWEFNISDSYFFTFYTENMSWRSANDESGVIMNKWNDDGDLVQRLKYFIPECRQKIDEFLKQSKEKP
B4: ectodomain of RAE-1δ (domain or fragment)
chain: GLDDAHSLRCNLTIKAPTPADEVKCFVGEILILHLSNINKTMTSGDPGETANATEVGECLTQPLKDLCQKLRDKVSNTKVDTHKTNGYPHLQVTMIYPQSQGQTPSATWEFNISDSYFFTFYTEIMSWRSANDESGVIMNKWKDDGEFVKQLKFLIHGCSQKMDEFLKQSKEKP
B5: ectodomain of RAE-1β (domain or fragment)
chain: GLDDAHSLRCNLTIKDPTPADPLWYEAKCFVGEILILHLSNINKTMTSGDPGETANATEVKKCLTQPLKNLCQKLRNKVSNTKVDTHKTNGYPHLQVTMIYPQSQGRTPSATWEFNISDSYFFTFYTENMSWRSANDESGVIMNKWKDDGEFVKQLKFLIHECSQKMDEFLKQSKEKP

How the values were obtained:
RAE-1δ (Mus musculus) = RAE-1δ (Mus musculus) (UniProt Q9JI58); settings: cited from earlier work
[1] = biological target: ectodomain of m152 (mouse cytomegalovirus m152/gp40 immunoevasin) (mouse cytomegalovirus (MCMV)); assay: AUC
[2] = biological target: ectodomain of m152 (mouse cytomegalovirus m152/gp40 immunoevasin) (mouse cytomegalovirus (MCMV)); assay: ITC
[3] = biological target: ectodomain of m152 (mouse cytomegalovirus m152/gp40 immunoevasin) (mouse cytomegalovirus (MCMV)); assay: AUC; remark: listed apart in the source

UniProt Q9JI58, sequence (Q9JI58 29-225, stated change not applied): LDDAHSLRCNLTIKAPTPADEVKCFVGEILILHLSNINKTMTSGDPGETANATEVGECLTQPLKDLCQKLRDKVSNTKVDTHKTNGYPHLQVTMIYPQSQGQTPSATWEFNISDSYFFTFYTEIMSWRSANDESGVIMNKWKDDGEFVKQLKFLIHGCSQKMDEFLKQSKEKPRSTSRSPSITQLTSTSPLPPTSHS

| Molecule | Kd [1] | also measured |
| --- | --- | --- |
| NKG2D (from UniProt O54709) |  | Kd (RAE-1δ (Mus musculus)): 0.726 µM |
| B1 | 31 µM |  |
| B2 | 1 µM |  |
| B3 | 1.4 µM |  |
| B4 | 34 µM |  |
| B5 | 4.1 µM | Kd [2]: 2.1 µM; Kd [3]: 1.7 µM; koff [1]: > 0.001 s⁻¹; stoichiometry N [1]: 1 |
